Earlier results on one substance are cited in PMC11087511.

The target of one data set is factor Xa (Homo sapiens) (UniProt P00742). Conditions: cited from earlier work.
Data set [1] deals with factor Xa within prothrombinase (Homo sapiens) (UniProt P00742). Particulars: cited from earlier work.
Sequence of factor Xa within prothrombinase (Homo sapiens) (P00742 41-179, chain 1 of 2): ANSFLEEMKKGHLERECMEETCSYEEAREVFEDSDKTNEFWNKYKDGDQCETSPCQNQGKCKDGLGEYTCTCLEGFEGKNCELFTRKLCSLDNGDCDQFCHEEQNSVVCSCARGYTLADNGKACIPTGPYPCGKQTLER
Sequence of factor Xa within prothrombinase (Homo sapiens) (P00742 235-488, chain 2 of 2): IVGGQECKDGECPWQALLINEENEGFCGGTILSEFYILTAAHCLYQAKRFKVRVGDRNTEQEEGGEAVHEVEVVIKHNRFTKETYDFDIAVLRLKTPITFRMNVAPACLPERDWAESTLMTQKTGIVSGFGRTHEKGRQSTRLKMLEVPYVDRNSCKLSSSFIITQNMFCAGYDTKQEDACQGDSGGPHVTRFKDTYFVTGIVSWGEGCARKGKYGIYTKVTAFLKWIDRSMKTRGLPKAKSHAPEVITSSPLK

Sequence of Tick anticoagulant peptide (TAP) (P17726 whole entry): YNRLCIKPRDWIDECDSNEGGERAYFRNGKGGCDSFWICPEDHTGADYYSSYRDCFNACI
Sequence of factor Xa (Homo sapiens) (P00742 235-488): as the sequence (P00742 235-488, chain 2 of 2) above

Broadly, the Ki is a measure of affinity in units of concentration, obtained from inhibition or displacement. “Tick anticoagulant peptide (TAP) (from UniProt P17726)”: the figures for the Ki (with factor Xa (Homo sapiens); in data set [1]) were 0.18 nM and 0.0053 nM, respectively.
